The source of these data is article PMC8634136 (The EMBO Journal, 2021).

The target of one data set is T1, MCM3 (human, UniProt P25205-1 1-808).
T1 construct: human MCM3, subunit of hsCMG; the construct lacks the 45 additional N-terminal residues of the longer isoform used in PDB 6XTX; Subunit of the CMG helicase in the replisome structure; source: Hi5 insect cells co-infected with baculoviruses for MCM2-7, GINS and CDC45; purified as hsCMG (Flag M2, Strep-Tactin XT, MonoQ)
T1 sequence: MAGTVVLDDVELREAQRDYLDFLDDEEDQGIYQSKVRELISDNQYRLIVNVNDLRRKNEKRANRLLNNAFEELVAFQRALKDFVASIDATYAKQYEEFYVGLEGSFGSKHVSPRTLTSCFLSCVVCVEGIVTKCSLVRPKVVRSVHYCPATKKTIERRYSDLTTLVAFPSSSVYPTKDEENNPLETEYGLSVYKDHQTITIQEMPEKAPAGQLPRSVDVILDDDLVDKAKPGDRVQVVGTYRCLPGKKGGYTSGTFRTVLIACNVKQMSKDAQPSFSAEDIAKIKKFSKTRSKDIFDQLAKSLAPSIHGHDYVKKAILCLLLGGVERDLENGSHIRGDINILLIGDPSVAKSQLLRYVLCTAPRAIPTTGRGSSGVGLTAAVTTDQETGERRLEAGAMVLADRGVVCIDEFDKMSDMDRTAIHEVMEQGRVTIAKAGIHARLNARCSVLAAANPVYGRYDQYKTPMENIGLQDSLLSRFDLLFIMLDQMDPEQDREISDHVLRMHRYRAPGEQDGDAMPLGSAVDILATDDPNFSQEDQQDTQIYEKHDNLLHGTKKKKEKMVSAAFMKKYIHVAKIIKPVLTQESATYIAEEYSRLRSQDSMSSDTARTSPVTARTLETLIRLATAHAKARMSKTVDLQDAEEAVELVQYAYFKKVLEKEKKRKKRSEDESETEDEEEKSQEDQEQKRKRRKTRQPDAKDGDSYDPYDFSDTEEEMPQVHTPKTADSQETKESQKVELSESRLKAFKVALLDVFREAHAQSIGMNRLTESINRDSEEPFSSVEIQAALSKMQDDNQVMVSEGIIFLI
Put plainly: cryo-EM structure; core human replisome (100 nM hsCMG with 1.5-fold excess of AND-1, TIMELESS-TIPIN, Pol ε, CLASPIN) on fork DNA with AMP-PNP; glycerol gradient with glutaraldehyde and BS3; consensus map 3.2 Å and multi-body map of Pol ε/CDC45/GINS; PDB 7PFO. The note with it: both partners purified.

The target of a further data set is T2, TIMELESS (human, UniProt Q9UNS1 1-1208).
T2 construct: Stood in the structure as a subunit of m3; residues 7-803 modelled (527-684 not visualised)
T2 sequence: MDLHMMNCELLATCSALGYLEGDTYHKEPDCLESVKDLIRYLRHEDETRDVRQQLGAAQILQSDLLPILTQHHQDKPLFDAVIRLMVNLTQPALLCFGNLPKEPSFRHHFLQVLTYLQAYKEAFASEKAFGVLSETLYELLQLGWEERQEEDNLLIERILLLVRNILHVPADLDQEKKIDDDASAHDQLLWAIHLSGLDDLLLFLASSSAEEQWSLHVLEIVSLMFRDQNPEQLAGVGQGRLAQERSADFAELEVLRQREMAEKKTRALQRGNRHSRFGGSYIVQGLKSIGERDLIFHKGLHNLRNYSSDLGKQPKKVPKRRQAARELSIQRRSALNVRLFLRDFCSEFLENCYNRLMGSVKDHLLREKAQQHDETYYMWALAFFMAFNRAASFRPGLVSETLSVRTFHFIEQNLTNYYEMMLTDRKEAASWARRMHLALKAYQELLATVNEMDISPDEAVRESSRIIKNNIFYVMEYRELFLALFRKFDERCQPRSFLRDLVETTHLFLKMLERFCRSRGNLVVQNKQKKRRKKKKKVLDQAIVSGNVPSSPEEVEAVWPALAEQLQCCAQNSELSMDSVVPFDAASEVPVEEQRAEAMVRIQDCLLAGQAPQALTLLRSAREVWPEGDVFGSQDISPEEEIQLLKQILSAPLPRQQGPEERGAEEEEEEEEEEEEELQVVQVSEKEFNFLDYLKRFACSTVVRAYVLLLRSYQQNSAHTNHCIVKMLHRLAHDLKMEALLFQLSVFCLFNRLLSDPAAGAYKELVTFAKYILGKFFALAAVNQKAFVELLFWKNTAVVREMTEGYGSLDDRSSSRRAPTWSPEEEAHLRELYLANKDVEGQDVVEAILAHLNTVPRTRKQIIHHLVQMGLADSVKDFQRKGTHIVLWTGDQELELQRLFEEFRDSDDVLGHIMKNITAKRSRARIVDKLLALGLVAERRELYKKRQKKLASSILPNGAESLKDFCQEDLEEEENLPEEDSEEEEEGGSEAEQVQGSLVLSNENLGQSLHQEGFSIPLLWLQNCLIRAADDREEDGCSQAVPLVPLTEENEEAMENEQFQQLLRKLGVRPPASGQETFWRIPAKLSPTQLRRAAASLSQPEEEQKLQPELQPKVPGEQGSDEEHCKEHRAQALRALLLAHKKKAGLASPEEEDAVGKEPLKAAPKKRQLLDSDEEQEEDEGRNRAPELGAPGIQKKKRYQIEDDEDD
As to the kind of experiment: cryo-EM structure; replisome reconstituted on fork DNA with AMP-PNP, isolated on a glycerol gradient with glutaraldehyde and BS3; 3.2 Å overall; a sample without CLASPIN solved at 3.4 Å. Conditions: both partners purified.

The next data set deals with T3, MCM7 (human, UniProt P33993 1-719).
T3 construct: MCM7, human; Stood in the structure as a subunit of m1; source: Hi5 insect cells, purified as a subunit of hsCMG
The data set is described as above. The note with it: both partners purified.

Data set [1] concerns the molecule itself. The data set is described as above.
Data set [2] addresses T4, human CDC45‐MCM‐GINS (CMG) helicase (human, UniProt P49736 1-904; P25205 1-808; P33991 1-863; P33992 1-734; Q14566 1-821; P33993 …).
T4 construct: MCM2, human; MCM3, human; the construct lacks the 45 additional N-terminal amino acids of the longer isoform used in PDB 6XTX; MCM4, human; MCM5, human; MCM6, human; MCM7, human; CDC45, human; PSF1 (GINS subunit), human; PSF2 (GINS subunit), human; PSF3 (GINS subunit), human; SLD5 (GINS subunit), human; also called hsCMG; source: Hi5 insect cells co-infected with baculoviruses for MCM2-7, GINS …
As to the kind of experiment: co-sedimentation; native glycerol gradient without cross-linker (40 mM HEPES-NaOH pH 7.5, 150 mM NaOAc, 0.5 mM TCEP, 500 µM AMP-PNP, 3 mM Mg(OAc)2), 200,000 g, 4°C, 2 h; 100 nM CMG pre-incubated with fork DNA, 1.5-fold molar excess of the other proteins; fractions on silver-stained SDS-PAGE. Conditions: both partners purified.

The target of a further data set is T5, CLASPIN (human, UniProt Q9HAW4 1-1339).
T5 construct: CLASPIN, human; Only residues 284-319, 525-540 and 592-618 are modelled in the structure; source: Hi5 insect cells (baculovirus), purified (Flag M2, Superose 6)
As to the kind of experiment: cryo-EM structure; replisome reconstituted on fork DNA with AMP-PNP, isolated on a glycerol gradient with glutaraldehyde and BS3; 3.2 Å overall; a sample without CLASPIN solved at 3.4 Å. The note with it: both partners purified.

T3 sequence (P33993 whole entry): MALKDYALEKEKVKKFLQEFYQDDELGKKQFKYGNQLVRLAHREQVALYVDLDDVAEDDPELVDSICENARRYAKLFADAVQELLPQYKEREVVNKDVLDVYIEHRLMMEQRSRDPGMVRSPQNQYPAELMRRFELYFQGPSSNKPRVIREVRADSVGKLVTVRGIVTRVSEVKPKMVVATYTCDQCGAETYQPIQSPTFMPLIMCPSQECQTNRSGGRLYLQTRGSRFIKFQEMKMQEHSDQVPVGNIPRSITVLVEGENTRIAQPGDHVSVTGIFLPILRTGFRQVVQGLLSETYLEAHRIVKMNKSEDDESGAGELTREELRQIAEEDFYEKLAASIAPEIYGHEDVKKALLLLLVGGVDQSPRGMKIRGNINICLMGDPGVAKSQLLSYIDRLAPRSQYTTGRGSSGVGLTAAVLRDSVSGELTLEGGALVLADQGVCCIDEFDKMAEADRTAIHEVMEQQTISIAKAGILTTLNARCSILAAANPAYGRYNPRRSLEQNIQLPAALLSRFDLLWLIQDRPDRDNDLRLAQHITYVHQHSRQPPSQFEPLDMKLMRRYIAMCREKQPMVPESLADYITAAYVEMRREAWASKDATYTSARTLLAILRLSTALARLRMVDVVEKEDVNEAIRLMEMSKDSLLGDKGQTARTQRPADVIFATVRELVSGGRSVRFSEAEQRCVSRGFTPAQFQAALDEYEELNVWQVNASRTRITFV
T5 sequence (Q9HAW4 whole entry, the tested form may be a part): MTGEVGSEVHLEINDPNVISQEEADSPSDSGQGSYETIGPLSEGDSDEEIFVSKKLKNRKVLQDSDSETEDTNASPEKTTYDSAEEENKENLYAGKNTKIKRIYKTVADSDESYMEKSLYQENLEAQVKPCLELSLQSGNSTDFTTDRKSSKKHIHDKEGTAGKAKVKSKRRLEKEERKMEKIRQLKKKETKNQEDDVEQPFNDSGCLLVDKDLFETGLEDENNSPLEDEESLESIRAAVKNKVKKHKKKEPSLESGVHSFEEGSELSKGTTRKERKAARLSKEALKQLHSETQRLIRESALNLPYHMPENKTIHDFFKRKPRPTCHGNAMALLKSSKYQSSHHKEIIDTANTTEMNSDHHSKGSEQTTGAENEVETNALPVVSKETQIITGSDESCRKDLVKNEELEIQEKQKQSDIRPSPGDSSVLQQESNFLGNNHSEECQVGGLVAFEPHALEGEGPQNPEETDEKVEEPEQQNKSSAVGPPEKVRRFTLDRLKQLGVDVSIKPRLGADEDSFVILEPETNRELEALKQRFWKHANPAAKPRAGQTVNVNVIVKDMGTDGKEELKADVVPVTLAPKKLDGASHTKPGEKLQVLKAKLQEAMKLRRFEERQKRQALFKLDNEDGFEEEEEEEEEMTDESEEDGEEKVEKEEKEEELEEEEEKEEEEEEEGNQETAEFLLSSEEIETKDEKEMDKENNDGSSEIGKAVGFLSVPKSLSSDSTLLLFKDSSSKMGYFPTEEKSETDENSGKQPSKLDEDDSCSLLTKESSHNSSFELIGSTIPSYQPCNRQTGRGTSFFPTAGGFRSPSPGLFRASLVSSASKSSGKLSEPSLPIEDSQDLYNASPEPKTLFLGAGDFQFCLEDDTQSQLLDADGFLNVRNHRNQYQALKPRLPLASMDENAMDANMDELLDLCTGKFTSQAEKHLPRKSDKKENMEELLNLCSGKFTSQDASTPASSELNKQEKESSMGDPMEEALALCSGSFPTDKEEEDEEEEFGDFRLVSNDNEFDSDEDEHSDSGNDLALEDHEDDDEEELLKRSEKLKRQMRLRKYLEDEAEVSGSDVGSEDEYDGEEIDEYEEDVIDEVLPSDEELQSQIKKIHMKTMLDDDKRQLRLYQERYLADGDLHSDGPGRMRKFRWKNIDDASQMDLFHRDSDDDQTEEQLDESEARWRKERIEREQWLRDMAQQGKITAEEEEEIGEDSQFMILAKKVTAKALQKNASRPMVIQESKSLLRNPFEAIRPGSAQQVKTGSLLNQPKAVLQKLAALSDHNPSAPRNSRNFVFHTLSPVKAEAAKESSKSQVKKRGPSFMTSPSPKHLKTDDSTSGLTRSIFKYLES

B1: POLE2 (natural protein, human)
chain: MAPERLRSRALSAFKLRGLLLRGEAIKYLTEALQSISELELEDKLEKIINAVEKQPLSSNMIERSVVEAAVQECSQSVDETIEHVFNIIGAFDIPRFVYNSERKKFLPLLMTNHPAPNLFGTPRDKAEMFRERYTILHQRTHRHELFTPPVIGSHPDESGSKFQLKTIETLLGSTTKIGDAIVLGMITQLKEGKFFLEDPTGTVQLDLSKAQFHSGLYTEACFVLAEGWFEDQVFHVNAFGFPPTEPSSTTRAYYGNINFFGGPSNTSVKTSAKLKQLEEENKDAMFVFLSDVWLDQVEVLEKLRIMFAGYSPAPPTCFILCGNFSSAPYGKNQVQALKDSLKTLADIICEYPDIHQSSRFVFVPGPEDPGFGSILPRPPLAESITNEFRQRVPFSVFTTNPCRIQYCTQEITVFREDLVNKMCRNCVRFPSSNLAIPNHFVKTILSQGHLTPLPLYVCPVYWAYDYALRVYPVPDLLVIADKYDPFTTTNTECLCINPGSFPRSGFSFKVFYPSNKTVEDSKLQGF
notes: human POLE2, subunit of Pol ε; residues 1-527 modelled; Purified with POLE1, POLE3 (C-terminal TEV CBP tag) and POLE4
Consider B1, for which the binding result in the data set with MCM3 was “binds”.

B2: TIPIN (natural protein, human)
chain: MLEPQENGVIDLPDYEHVEDETFPPFPPPASPERQDGEGTEPDEESGNGAPVRVPPKRTVKRNIPKLDAQRLISERGLPALRHVFDKAKFKGKGHEAEDLKMLIRHMEHWAHRLFPKLQFEDFIDRVEYLGSKKEVQTCLKRIRLDLPILHEDFVSNNDEVAENNEHDVTSTELDPFLTNLSESEMFASELSRSLTEEQQQRIERNKQLALERRQAKLLSNSQTLGNDMLMNTPRAHTVEEVNTDEDQKEESNGLNEDILDNPCNDAIANTLNEEETLLDQSFKNVQQQLDATSRNITEAR
notes: TIPIN, human; Stood in the structure as a subunit of m3; residues 62-147 modelled
In the case of B2, the binding result in the data set with TIMELESS and with MCM7 was “binds” throughout.

B3: AND‐1 (natural protein, human)
chain: MPATRKPMRYGHTEGHTEVCFDDSGSFIVTCGSDGDVRIWEDLDDDDPKFINVGEKAYSCALKSGKLVTAVSNNTIQVHTFPEGVPDGILTRFTTNANHVVFNGDGTKIAAGSSDFLVKIVDVMDSSQQKTFRGHDAPVLSLSFDPKDIFLASASCDGSVRVWQISDQTCAISWPLLQKCNDVINAKSICRLAWQPKSGKLLAIPVEKSVKLYRRESWSHQFDLSDNFISQTLNIVTWSPCGQYLAAGSINGLIIVWNVETKDCMERVKHEKGYAICGLAWHPTCGRISYTDAEGNLGLLENVCDPSGKTSSSKVSSRVEKDYNDLFDGDDMSNAGDFLNDNAVEIPSFSKGIINDDEDDEDLMMASGRPRQRSHILEDDENSVDISMLKTGSSLLKEEEEDGQEGSIHNLPLVTSQRPFYDGPMPTPRQKPFQSGSTPLHLTHRFMVWNSIGIIRCYNDEQDNAIDVEFHDTSIHHATHLSNTLNYTIADLSHEAILLACESTDELASKLHCLHFSSWDSSKEWIIDLPQNEDIEAICLGQGWAAAATSALLLRLFTIGGVQKEVFSLAGPVVSMAGHGEQLFIVYHRGTGFDGDQCLGVQLLELGKKKKQILHGDPLPLTRKSYLAWIGFSAEGTPCYVDSEGIVRMLNRGLGNTWTPICNTREHCKGKSDHYWVVGIHENPQQLRCIPCKGSRFPPTLPRPAVAILSFKLPYCQIATEKGQMEEQFWRSVIFHNHLDYLAKNGYEYEESTKNQATKEQQELLMKMLALSCKLEREFRCVELADLMTQNAVNLAIKYASRSRKLILAQKLSELAVEKAAELTATQVEEEEEEEDFRKKLNAGYSNTATEWSQPRFRNQVEEDAEDSGEADDEEKPEIHKPGQNSFSKSTNSSDVSAKSGAVTFSSQGRVNPFKVSASSKEPAMSMNSARSTNILDNMGKSSKKSTALSRTTNNEKSPIIKPLIPKPKPKQASAASYFQKRNSQTNKTEEVKEENLKNVLSETPAICPPQNTENQRPKTGFQMWLEENRSNILSDNPDFSDEADIIKEGMIRFRVLSTEERKVWANKAKGETASEGTEAKKRKRVVDESDETENQEEKAKENLNLSKKQKPLDFSTNQKLSAFAFKQE
notes: AND-1, human; Only the trimer of SepB domains is ordered in the map; source: Hi5 insect cells (baculovirus), purified (Flag M2, MonoQ, Superdex 200)
Consider B3, for which the stoichiometry N – broadly, a count of units in the complex or per binding partner – in data set [1] stood at 3. Moreover, the binding result in data set [2] is “binds”.

B4: MCM6 (natural protein, human)
chain: MDLAAAAEPGAGSQHLEVRDEVAEKCQKLFLDFLEEFQSSDGEIKYLQLAEELIRPERNTLVVSFVDLEQFNQQLSTTIQEEFYRVYPYLCRALKTFVKDRKEIPLAKDFYVAFQDLPTRHKIRELTSSRIGLLTRISGQVVRTHPVHPELVSGTFLCLDCQTVIRDVEQQFKYTQPNICRNPVCANRRRFLLDTNKSRFVDFQKVRIQETQAELPRGSIPRSLEVILRAEAVESAQAGDKCDFTGTLIVVPDVSKLSTPGARAETNSRVSGVDGYETEGIRGLRALGVRDLSYRLVFLACCVAPTNPRFGGKELRDEEQTAESIKNQMTVKEWEKVFEMSQDKNLYHNLCTSLFPTIHGNDEVKRGVLLMLFGGVPKTTGEGTSLRGDINVCIVGDPSTAKSQFLKHVEEFSPRAVYTSGKASSAAGLTAAVVRDEESHEFVIEAGALMLADNGVCCIDEFDKMDVRDQVAIHEAMEQQTISITKAGVKATLNARTSILAAANPISGHYDRSKSLKQNINLSAPIMSRFDLFFILVDECNEVTDYAIARRIVDLHSRIEESIDRVYSLDDIRRYLLFARQFKPKISKESEDFIVEQYKHLRQRDGSGVTKSSWRITVRQLESMIRLSEAMARMHCCDEVQPKHVKEAFRLLNKSIIRVETPDVNLDQEEEIQMEVDEGAGGINGHADSPAPVNGINGYNEDINQESAPKASLRLGFSEYCRISNLIVLHLRKVEEEEDESALKRSELVNWYLKEIESEIDSEEELINKKRIIEKVIHRLTHYDHVLIELTQAGLKGSTEGSESYEEDPYLVVNPNYLLED
notes: MCM6, human; Stood in the structure as a subunit of m1; source: Hi5 insect cells, purified as a subunit of hsCMG
Regarding B4, the binding result with CLASPIN and with TIMELESS was “binds” throughout.
